Target: F29 7-36 (Homo sapiens, UniProt P01275, Ile29 replaced by hexafluoroleucine, C-terminal amide)
Assay: competition binding with [125I]-Ex

- IC50: 13.4 nM
B1: GLP-1 receptor (protein)
chain: RPQGATVSLWETVQKWREYRRQCQRSLTEDPPPATDLFCNRTFDEYACWPDGEPGSFVNVSCPWYLPWASSVPQGHVYRFCTAEGLWLQKDNSSLPWRDLSECEESKRGERSSPEEQLLFLYIIYTVGYALSFSALVIASAILLGFRHLHCTRNYIHLNLFASFILRALSVFIKDAALKWMYSTAAQQHQWDGLLSYQDSLSCRLVFLLMQYCVAANYYWLLVEGVYLYTLLAFSVLSEQWIFRLYVSIGWGVPLLFVVPWGIVKYLYEDEGCWTRNSNMNYWLIIRLPILFAIGVNFLIFVRVICIVVSKLKANLMCKTDIKCRLAKSTLTLIPLLGTHEVIFAFVMDEHARGTLRFIKLFTELSFTSFQGLMVAILYCFVNNEVQLEFRKSWERWRLEHLHIQRDSSMKPLKCPTSSLSSGATAGSSMYTATCQASCS
